One molecule from PMC4227790 can be followed below.

This test has as its target FLAG-tagged TRAP150 (thyroid hormone receptor-associated protein of 150 kDa), full length (UniProt Q9Y2W1). As to the kind of experiment: co-IP; anti-FLAG immunoprecipitation of FLAG-TRAP150 (full length or truncated) from lysate of transfected HEK293 cells (hypotonic buffer with 0.5% Triton X-100, brought to 150 mM NaCl); precipitates mock- or RNase A-treated; immunoblot of endogenous partners. On the technique in general: A western blot detects proteins with antibodies after separation by electrophoresis.
Chain of UniProt Q9Y2W1 (Q9Y2W1 2-955): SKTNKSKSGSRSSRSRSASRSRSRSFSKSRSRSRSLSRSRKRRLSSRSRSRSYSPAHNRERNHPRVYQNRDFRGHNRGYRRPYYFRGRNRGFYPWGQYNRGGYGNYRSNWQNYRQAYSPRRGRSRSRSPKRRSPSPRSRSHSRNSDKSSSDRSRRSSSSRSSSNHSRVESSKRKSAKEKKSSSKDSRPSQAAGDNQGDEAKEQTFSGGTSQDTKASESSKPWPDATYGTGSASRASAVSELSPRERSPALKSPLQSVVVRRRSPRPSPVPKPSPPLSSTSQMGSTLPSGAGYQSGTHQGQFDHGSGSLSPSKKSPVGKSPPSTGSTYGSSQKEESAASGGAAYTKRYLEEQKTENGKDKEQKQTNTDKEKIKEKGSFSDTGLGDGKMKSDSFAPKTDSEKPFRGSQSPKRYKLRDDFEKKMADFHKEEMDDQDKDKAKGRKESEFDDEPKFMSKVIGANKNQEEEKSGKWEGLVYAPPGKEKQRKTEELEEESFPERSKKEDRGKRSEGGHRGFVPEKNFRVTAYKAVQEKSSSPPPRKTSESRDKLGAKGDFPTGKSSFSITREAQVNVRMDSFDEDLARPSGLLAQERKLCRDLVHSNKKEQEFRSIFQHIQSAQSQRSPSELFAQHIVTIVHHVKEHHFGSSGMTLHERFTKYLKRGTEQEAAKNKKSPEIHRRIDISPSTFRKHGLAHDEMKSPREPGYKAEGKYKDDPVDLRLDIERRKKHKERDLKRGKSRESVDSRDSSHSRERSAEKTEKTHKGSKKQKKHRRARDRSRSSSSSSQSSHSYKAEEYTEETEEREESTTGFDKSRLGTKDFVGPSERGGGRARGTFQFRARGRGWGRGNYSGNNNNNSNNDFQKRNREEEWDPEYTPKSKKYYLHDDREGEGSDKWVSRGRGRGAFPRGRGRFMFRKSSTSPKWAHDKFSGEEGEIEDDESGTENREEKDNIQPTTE

B1: CPSF160 (natural protein)
chain: MYAVYKQAHPPTGLEFSMYCNFFNNSERNLVVAGTSQLYVYRLNRDAEALTKNDRSTEGKAHREKLELAASFSFFGNVMSMASVQLAGAKRDALLLSFKDAKLSVVEYDPGTHDLKTLSLHYFEEPELRDGFVQNVHTPRVRVDPDGRCAAMLVYGTRLVVLPFRRESLAEEHEGLVGEGQRSSFLPSYIIDVRALDEKLLNIIDLQFLHGYYEPTLLILFEPNQTWPGRVAVRQDTCSIVAISLNITQKVHPVIWSLTSLPFDCTQALAVPKPIGGVVVFAVNSLLYLNQSVPPYGVALNSLTTGTTAFPLRTQEGVRITLDCAQATFISYDKMVISLKGGEIYVLTLITDGMRSVRAFHFDKAAASVLTTSMVTMEPGYLFLGSRLGNSLLLKYTEKLQEPPASAVREAADKEEPPSKKKRVDATAGWSAAGKSVPQDEVDEIEVYGSEAQSGTQLATYSFEVCDSILNIGPCANAAVGEPAFLSEEFQNSPEPDLEIVVCSGHGKNGALSVLQKSIRPQVVTTFELPGCYDMWTVIAPVRKEEEDNPKGEGTEQEPSTTPEADDDGRRHGFLILSREDSTMILQTGQEIMELDTSGFATQGPTVFAGNIGDNRYIVQVSPLGIRLLEGVNQLHFIPVDLGAPIVQCAVADPYVVIMSAEGHVTMFLLKSDSYGGRHHRLALHKPPLHHQSKVITLCLYRDLSGMFTTESRLGGARDELGGRSGPEAEGLGSETSPTVDDEEEMLYGDSGSLFSPSKEEARRSSQPPADRDPAPFRAEPTHWCLLVRENGTMEIYQLPDWRLVFLVKNFPVGQRVLVDSSFGQPTTQGEARREEATRQGELPLVKEVLLVALGSRQSRPYLLVHVDQELLIYEAFPHDSQLGQGNLKVRFKKVPHNINFREKKPKPSKKKAEGGGAEEGAGARGRVARFRYFEDIYGYSGVFICGPSPHWLLVTGRGALRLHPMAIDGPVDSFAPFHNVNCPRGFLYFNRQGELRISVLPAYLSYDAPWPVRKIPLRCTAHYVAYHVESKVYAVATSTNTPCARIPRMTGEEKEFETIERDERYIHPQQEAFSIQLISPVSWEAIPNARIELQEWEHVTCMKTVSLRSEETVSGLKGYVAAGTCLMQGEEVTCRGRILIMDVIEVVPEPGQPLTKNKFKVLYEKEQKGPVTALCHCNGHLVSAIGQKIFLWSLRASELTGMAFIDTQLYIHQMISVKNFILAADVMKSISLLRYQEESKTLSLVSRDAKPLEVYSVDFMVDNAQLGFLVSDRDRNLMVYMYLPEAKESFGGMRLLRRADFHVGAHVNTFWRTPCRGATEGLSKKSVVWENKHITWFATLDGGIGLLLPMQEKTYRRLLMLQNALTTMLPHHAGLNPRAFRMLHVDRRTLQNAVRNVLDGELLNRYLYLSTMERSELAKKIGTTPDIILDDLLETDRVTAHF
B1 came in with a percent of CPSF160 co-precipitated of 10 to 20%.
